From paper PMC4273445 (eLife, 2014)

What was measured:
Experiment in all cases: SPR
[1] = biological target: fHbp V1.1 Glu157 to Ala (N. meningitidis)
[2] = biological target: fHbp V2.21 Phe (at V1 Phe194) to Ala (N. meningitidis)
[3] = biological target: fHbp V2.21 Phe (at V1 Phe292) to Ala (N. meningitidis)
[4] = biological target: fHbp V2.21 Val (at V1 Leu171) to Ala (N. meningitidis)
[5] = biological target: fHbp V3.28 Leu (at V1 Arg195) to Ala (N. meningitidis)
[6] = biological target: factor H binding protein (fHbp) V1.1 (N. meningitidis) (UniProt Q9JXV4)

Sequence of CFH67, CCP domains 6 and 7 of complement factor H (P08603 321-443): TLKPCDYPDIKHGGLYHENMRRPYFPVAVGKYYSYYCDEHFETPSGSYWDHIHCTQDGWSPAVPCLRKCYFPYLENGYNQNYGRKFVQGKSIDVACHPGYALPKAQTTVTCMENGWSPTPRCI

Substance | Kd [1] [nM] | Kd [2] [nM] | Kd [3] [nM] | Kd [4] [nM] | Kd [5] [nM] | Kd [6] [nM]
CFH67, CCP domains 6 and 7 of complement factor H (from UniProt P08603 321-443) (domain or fragment) | 20.7 | – | – | – | – | –
CFHR3_(12), the first two (N-terminal) CCP domains of complement factor H-related 3 (from UniProt Q02985 19-330) (domain or fragment) | – | 1.08 | 19.4 | 9.81 | 1.76 | 59.4
